From patent publication US7592168B2, “Cephalosporin C acylase mutant and method for preparing 7-ACA using same” (Sandoz AG, priority 2003, dated 2009)
Where a chain is given by its changes, count along the chain named.

B1: Wild-type: Pseudomonas sp. SE83 derived wild-type CPC acylase (AcyII), α-subunit SEQ ID NO: 4 and β-subunit SEQ ID NO: 5, from pBCPC (protein)
alpha: TMAAKTDREALQAALPPLSGSLSIPGLSAPVRVQRDGWGIPHIKASGEADAYRALGFVHAQDRLFQMELTRRKALGRAAEWLGAEAAEADILVRRLGMEKVCRRDFEALGAEAKDMLRAYVAGVNAFLASGAPLPIEYGLLGAEPEPWEPWHSIAVMRRLGLLMGSVWFKLWRMLALPVVGAANALKLRYDDGGQDLLCIPPGVEAERLEADLAALRPAVDALLKAMGG
beta: SNNWAVAPGRTATGRPILAGDPHRVFEIPGMYAQHHLACDRFDMIGLTVPGVPGFPHFAHNGKVAYCVTHAFMDIHDLYLEQFAEDGRTARFGNEFEPVAWRRDRIAVRGGADREFDIVETRHGPVIAGDPLEGAALTLRSVQFAETDLSFDCLTRMPGASTVAQLYDATRGWGLIDHNLVAGDVAGSIGHLVRARVPSRPRENGWLPVPGWSGEHEWRGWIPHEAMPRVIDPPGGLIVTANNRVVADDHPDYLCTDCHPPYRAERIMERLVASPAFAVDDAAAIHADTLSPHVGLLRARLEALGIQGSLPAEELRQTLIAWDGRMDAGSQAASAYNAFRRALTRLVTARSGLEQAIAHPFAAVPPGVSPQGQVWWAVPTLLRNDDAGMLKGWSWDEALSEALSVATQNLTGRGWGEEHRPRFTHPLSAQFPAWAALLNPVSRPIGGDGDTVLANGLVPSAGPEATYGALSRYVFDVGNWDNSRWVVFHGASGHPASPHYADQNAPWSDCAMVPMLYSWDRIAAEAVTSQELVPA
modifications: Pseudomonas sp. SE83
B2: S12: sixfold CPC acylase mutant, α-subunit SEQ ID NO: 7 and β-subunit SEQ ID NO: 8 (protein)
alpha: B1 alpha with V121A, G139S
beta: B1 beta with F58N, I75T, I176V, S471C
modifications: alpha-subunit of mutatnt CPC acylase S12 protein; beta-subunit of mutatnt CPC acylase S12 protein

Tests used:
[1] = Matsuda et al. 1987; cited from earlier work
[2] = Productivity of CPC acylase, pBC KS(+) plasmids in E. coli MC1061; settings: E. coli MC1061, LB, 25° C., 48 hr, crude enzyme
Procedure: To compare the productivity of CPC acylase by pBCPC plasmid derived E. coli transformant with that by pBSEM plasmid derived E. coli transformant, a CPC acylase crude enzyme solution obtained from each E. coli transformant was prepared as follows. Each E. coli transformant was inoculated into 3 ml of a LB medium (1% Bacto-Tryptone, 0.5% Yeast Extract, 0.5% NaCl) containing 25 μg/ml of chloramphenicol and cultured at 30° C., 200 rpm for 16 hr with vigorous shaking. 50 μl of the culture solution was transformed to 50 ml of a new LB medium containing […] of chloramphenicol and further cultured at 25° C., 200 rpm for 48 hr with vigorous shaking. The culture solution was subjected to centrifugation at 4° C., 8,000 rpm for 10 min to separate a precipitate and the precipitate washed twice with 0.1 M Tris-HCl buffer solution (pH 8.0). This precipitate was suspended in 5 ml of the same buffer solution and subjected to ultra-sonication at 4° C. for 10 min. […]
The enzyme activity of CPC acylase mutant to CPC was measured according to the method described by Park et al. with minor modifications as follows (Park, et al., Kor. J. Appl. Microbiol. Biotechnol. 23: 559-564, 1995). […] After the reaction, the absorbance of reaction mixture was measured at 415 nm and quantified by comparing with a calibration curve of standard material. […] Meanwhile, the specific activity of CPC acylase mutant for CPC was determined by measuring the amount of protein remaining in the enzyme solution according to the method described by Bradford (Bradford, M., Anal. Biochem. 72: 248-254, 1976) and representing it as an active unit corresponding to 1 mg of protein. The reactivity of CPC acylase mutant to CPC was determined by the following steps of adding the same amount of protein to a reaction mixture, performing an enzyme reaction for a fixed time, measuring the amount of 7-ACA produced in the reaction mixture, and representing it as a relative value. […]

[3] = Productivity of CPC acylase mutant, pET29 plasmids in E. coli BL21(DE3) with lactose; settings: pET29-S12, E. coli BL21(DE3), 2% lactose, 25° C., 72 hr
Procedure: Each of pET29-TnS5αβ and pET29-S12 plasmids was transformed into E. coli BL21(DE3) by electrophoration to prepare the recombinant E. coli containing pET29-TnS5αβ and pET29-S12 plasmid, respectively, and the productivity of sixfold CPC acylase mutant in each recombinant E. coli was measured The TnS5αβ and S12 CPC acylase mutant gene in these recombinant plasmids was transcribed by the action of T7 promoter which is under the control of LacI operator existed on pET29-a(+) vector.
The recombinant E. coli containing pET-TnS5αβ plasmid was inoculated in […] of a LB broth containing 20 μg/ml of kanamycin and cultivated at 30° C., 200 rpm for 16 hr with vigorous shaking. […] The activity of sixfold CPC acylase mutant to CPC was measured using said crude enzyme solution according to the same method as described in Example <1-1-2>.
Further, the productivity of CPC acylase by S12 mutant enzyme in the E. coli BL21(DE3) transformant containing pET29-S12 recombinant plasmid was measured according to the same method as described above except that […] of a LB broth containing 20 μg/ml of kanamycin and 2% lactose was employed for a main cultivation and the E. coli transformant was cultured at 25° C., 200 rpm for 72 hr with vigorous shaking. […]

| Molecule | acylase activity to CPC as compared with GL-7-ACA [1] | The productivity of CPC acylase (unit/l) [2] | The productivity of CPC acylase (unit/l) ([2]; listed as pBCPC (wild-type)) | productivity of CPC acylase mutant [3] |
| --- | --- | --- | --- | --- |
| B1 | about 5% | about 97 unit/l | 97 | – |
| B2 | – | 712 unit/l | – | 1,207 unit/l |
